The results in this text go back to the supplement of paper PMC10567573.

First the molecules themselves.
B1: MFF (parent)
chain: MAEISRIQYEMEYTEGISQRMRVP
B2: FBXO3 (parent)
chain: DEEERRRRVFDVPIRRRRCSRLF
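Note: lentivirally expressed fusions sorted by FACS into six bins by GFP to DsRed ratio, PSI derived from sequencing read proportions per bin multiplied by bin number.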

Variants of B1 are the subject of one data set. Put plainly: protein stability index of a GFP-peptide fusion (GPS, HEK-293T) (PSI 1-6); higher = more stable. Particulars: c terminus: a fixed tail appended.
Regarding MARISRIQYEMEYTEGISQRMRVP [E3R], the protein stability index was found to be 2.39.
On the same count and under the same terms, to MAEISIIQYEMEYTEGISQRMRVP [R6I] belongs 1.63.
For MAEISKIQYEMEYTEGISQRMRVP [R6K], the protein stability index was 3.15.
For the variant MAEISMIQYEMEYTEGISQRMRVP [R6M], the protein stability index was 2.41.
On the same count and under the same terms, the figure for MAEISEIQYEMEYTEGISQRMRVP [R6E] is 3.42; for MAEISHIQYEMEYTEGISQRMRVP [R6H] it is 3; for MAEISLIQYEMEYTEGISQRMRVP [R6L] it is 1.71.
As to MAEISNIQYEMEYTEGISQRMRVP [R6N], the protein stability index is 3.27.
Turning to MAEISSIQYEMEYTEGISQRMRVP [R6S], the protein stability index was 3.37.
As to MAEISQIQYEMEYTEGISQRMRVP [R6Q], the protein stability index came out at 3.34.
Still for that read-out and setting: to MAEISRIQYEMEYEEGISQRMRVP [T14E] belongs 3.22.
On the same count and under the same terms, the figure for MAEISRIQYEMEYVEGISQRMRVP [T14V] is 2.56; for MAEISRIQYEMEYMEGISQRMRVP [T14M] it is 2.2.
Still for that read-out and setting: to MAEISRIQYEMEYSEGISQRMRVP [T14S] belongs 2.71; to MAEISRIQYEMEYNEGISQRMRVP [T14N], 3.15; to MAEISRIQYEMEYWEGISQRMRVP [T14W], 1.97.
With MAEISRIQYEMEYFEGISQRMRVP [T14F], the protein stability index was 1.65.
Turning to MAEISRIQYEMEYQEGISQRMRVP [T14Q], the protein stability index was determined as 3.08.
The same measure, in the same setting: to MAEISRIQYEMEYHEGISQRMRVP [T14H] belongs 2.5; to MAEISRIQYEMEYYEGISQRMRVP [T14Y], 2.04.
Same read-out and setting: the figure for MAEISRIQYSMEYTEGISQRMRVP [E10S] is 2.74.
Still for that read-out and setting: to MAEISRIQYLMEYTEGISQRMRVP [E10L] belongs 1.66; to MAEISRIQYAMEYTEGISQRMRVP [E10A], 2.15.
As for MAEISRIQYWMEYTEGISQRMRVP [E10W], the protein stability index was determined as 2.72.
On the same count and under the same terms, to MAEISRIQYRMEYTEGISQRMRVP [E10R] belongs 2.05; to MAEISRIQYMMEYTEGISQRMRVP [E10M], 2.08; to MAEISRIQYNMEYTEGISQRMRVP [E10N], 2.55.
Still for that read-out and setting: the figure for MAEIHRIQYEMEYTEGISQRMRVP [S5H] is 2.47; for MAEITRIQYEMEYTEGISQRMRVP [S5T] it is 2.02; for MAEINRIQYEMEYTEGISQRMRVP [S5N] it is 2.53.
On the same count and under the same terms, to MAEIIRIQYEMEYTEGISQRMRVP [S5I] belongs 2.11; to MAEIRRIQYEMEYTEGISQRMRVP [S5R], 2.75.
Take MAEPSRIQYEMEYTEGISQRMRVP [I4P]: the protein stability index is 3.55.
Consider MAEFSRIQYEMEYTEGISQRMRVP [I4F], for which the protein stability index was found to be 2.56.
The same measure, in the same setting: the figure for MAERSRIQYEMEYTEGISQRMRVP [I4R] is 3.31; for MAETSRIQYEMEYTEGISQRMRVP [I4T] it is 3.86; for MAEESRIQYEMEYTEGISQRMRVP [I4E] it is 4.08.
As to MAECSRIQYEMEYTEGISQRMRVP [I4C], the protein stability index worked out at 3.6.
For the variant MAEVSRIQYEMEYTEGISQRMRVP [I4V], the protein stability index came to 2.74.
On the same count and under the same terms, to MAEQSRIQYEMEYTEGISQRMRVP [I4Q] belongs 3.8.
Same read-out and setting: to MAEISRIQYEMEYTEGISQRMRWP [V23W] belongs 1.7; to MAEISRIQYEMEYTEGISQRMRPP [V23P], 2.54.
With MAEISRIQYEMEYTEGISQRMRGP [V23G], the protein stability index amounted to 2.72.
On the same count and under the same terms, the figure for MAEISRIQYEMEYTEGISQRMRDP [V23D] is 3.23; for MAEISRIQYEMEYTEGISQRMRMP [V23M] it is 2.63.
Same read-out and setting: to MAEISRIQYEMEYTEGISQRMFVP [R22F] belongs 1.69.
Still for that read-out and setting: the figure for MAEISRIQYEMEYTEGISQRMWVP [R22W] is 2.01.
Regarding MAEISRIQYEMEYTEGISQRMSVP [R22S], the protein stability index turned out to be 2.44.
On the same count and under the same terms, to MAEISRIQYEMEYTEGISQRMLVP [R22L] belongs 2.48.
Still for that read-out and setting: to MAEISRIQYEMEYTEGISQRMCVP [R22C] belongs 2.4; to MAEISRIQYEMEYTEGISMRMRVP [Q19M], 2.65.
On the same count and under the same terms, to MAEISRIQYEMEYTEGISDRMRVP [Q19D] belongs 3.16; to MAEISRIQYEMEYTEGISPRMRVP [Q19P], 2.77; to MAEISRIQYEMEYTEGISWRMRVP [Q19W], 2.16.
For MAEISRIQYEMEYTEGISFRMRVP [Q19F], the protein stability index was 1.56.
Regarding MAEISRIQLEMEYTEGISQRMRVP [Y9L], the protein stability index worked out at 2.28.
Take MAEISRIQTEMEYTEGISQRMRVP [Y9T]: the protein stability index worked out at 3.22.
Regarding MAEISRIQGEMEYTEGISQRMRVP [Y9G], the protein stability index stood at 3.6.
On to MAEISRIQEEMEYTEGISQRMRVP [Y9E], for which the protein stability index is 3.6.
On the same count and under the same terms, to MAEISRIQDEMEYTEGISQRMRVP [Y9D] belongs 3.85; to MAEISRIQWEMEYTEGISQRMRVP [Y9W], 2.28.
Consider MAEISRIQSEMEYTEGISQRMRVP [Y9S], for which the protein stability index was 3.42.
On the same count and under the same terms, to MAEISRIWYEMEYTEGISQRMRVP [Q8W] belongs 1.49; to MAEISRIAYEMEYTEGISQRMRVP [Q8A], 2.31.
With MAEISRIPYEMEYTEGISQRMRVP [Q8P], the protein stability index stood at 3.03.
Still for that read-out and setting: to MAEISRIMYEMEYTEGISQRMRVP [Q8M] belongs 1.94; to MAEISRIRYEMEYTEGISQRMRVP [Q8R], 2.21; to MAEISRITYEMEYTEGISQRMRVP [Q8T], 2.38.
In the case of MAEISRIEYEMEYTEGISQRMRVP [Q8E], the protein stability index was 3.02.

The next data set covers variants of B2. The data set is described as above. Particulars: c terminus: native.
In the case of DEEERRRRVFDVPIRRRRCSRPF [L22P], the protein stability index amounted to 3.85.
Take DEEERRRRVFDVPIRRRRCSRWF [L22W]: the protein stability index was 3.03.
Same read-out and setting: the figure for DEEERRRRVFDVPIRRRRCSRTF [L22T] is 2.46.
The same measure, in the same setting: to DEEERRRRVFDVPIRRRRCSRRF [L22R] belongs 3.97; to DEEERRRRVFDVPIRRRRCSRQF [L22Q], 1.55.
On to DEEERRRRVFDVPIRRRRCSRSF [L22S], for which the protein stability index was 2.17.
On the same count and under the same terms, to DEEERRRRVFDVPIRRRRCSRVF [L22V] belongs 2.12; to DEEERRRRVFDVPIRRRRCSRYF [L22Y], 2.63.
Same read-out and setting: to DEEERRRRVFDVPIRRRRCSRLR [F23R] belongs 3.91; to DEEERRRRVFDVPIRRRRCSRLG [F23G], 2.86; to DEEERRRRVFDVPIRRRRCSRLV [F23V], 3.28.
Consider DEEERRRRVFDVPIRRRRCSRLL [F23L], for which the protein stability index was 4.08.
Regarding DEEERRRRVFDVPIRRRRCSRLH [F23H], the protein stability index was determined as 2.77.
Same read-out and setting: the figure for DEEERRRRVFDVPIRRRRCSRLD [F23D] is 2.71; for DEEERRRRVFDVPIRRRRCSRLQ [F23Q] it is 2.98; for DEEERRRRVFDVPIRRRRCSRLA [F23A] it is 1.35.
Regarding DEEERRRRVFDVPIRRRRCSRLK [F23K], the protein stability index turned out to be 4.1.
As for DEEERRRRVFDVPIRRRRCSRLI [F23I], the protein stability index is 1.85.
For the variant DEEERRRRVFDVPIRRRRCSRLT [F23T], the protein stability index was found to be 2.4.
On to DEEERRRRVFDVPIRRRRCSRLN [F23N], for which the protein stability index is 2.48.
On the same count and under the same terms, the figure for DEEERRRRVFDVPIRRRRCSRLY [F23Y] is 3.25; for DEEERRRRVFDVPIRRRRCSRLW [F23W] it is 3.56.
On the same count and under the same terms, to DEEERRRRVFDVPIRRRRCSRLM [F23M] belongs 2.45.
On the same count and under the same terms, to DEEERRRRVFDVPIRRRRCSRLC [F23C] belongs 2.65.
Consider DEEERRRRVFDVPIRRRRCSRLP [F23P], for which the protein stability index was determined as 2.6.
DEEERRRRVFDVPIRRRRCSRLS [F23S]: the protein stability index is 1.03.
